Assay results published in patent US20080220446A1, “Method for Detecting and/or Removing Protein and/or Peptide Comprising a Cross-Beta Structure From an Aqueous Solution Comprising a Protein” (priority 2005, published 2008).

Test: Thioflavin T fluorescence of protein solutions
Format: physicochemical
Conditions: initial, compared with native β2GPI purified from plasma
Protocol: Fluorescence of ThT—protein/peptide adducts was measured as follows. […] Fluorescence was measured at 485 nm upon excitation at 435 nm. Background signals from buffer, buffer with ThT and protein/peptide solution without ThT were subtracted from corresponding measurements with protein solution incubated with ThT. Regularly, fluorescence of Aβ was used as a positive control, and fluorescence of FP10, a non-amyloid fibrin fragment^16, was used as a negative control. Fluorescence was measured in triplicate on a Hitachi F-4500 fluorescence spectrophotometer (Ltd., Tokyo, Japan).
Formulated protein therapeutics were obtained from the local hospital pharmacy and were used as supplied by the manufacturers. […] Lyophilized therapeutics were dissolved according to the manufacturers recommendations. GH, zinc-insulin, Cealb and gelatin were stored at −20, 4, room temperature, 37 and 65° C. Other protein therapeutics were only kept at 4° C., and assayed for the presence of cross-β structure at shown time points. Enhancement in fluorescence of ThT and Congo red was measured with all formulated protein therapeutics. […]
ThT fluorescence of β2GPI was measured as follows. […] In the ThT fluorescence assay, fluorescence of β2GPI in buffer, of CL or DXS500k in buffer, of buffer and ThT alone, and of β2GPI-CL adducts and β2GPI-DXS500k adducts, with or without ThT, was recorded as described above (section ThT fluorescence). In addition, TEM images were recorded with CL, β2GPI from human plasma, with or without CL, and with recombinant β2GPI, as described^5.
To prepare structurally altered ovalbumin (OVA) with amyloid cross-β structures, purified OVA (Sigma, A-7641, lot 071k7094) was heated to 85° C. […] Native OVA (nOVA) and heat-denatured OVA (dOVA) were tested in the ThT fluorescence assay and in the Plg-activation assay. In the fluorescence assay and in the Plg-activation assay, 25 and 100 μg ml^−1 nOVA and dOVA were tested, respectively. […]
MSA (#126674, Calbiochem) was dissolved in 8 M urea, 100 mM Tris-HCl pH 8.2, at 10 mg ml^−1 final concentration. […] The presence of aggregates or fibrils was analyzed using TEM. […]

B1: recombinant β2GPI: recombinant human β2-glycoprotein I made using insect cells (protein)
chain: GRTCPKPDDLPFSTVVPLKTFYEPGEEITYSCKPGYVSRGGMRKFICPLTGLWPINTLKCTPRVCPFAGILENGAVRYTTFEYPNTISFSCNTGFYLNGADSAKCTEEGKWSPELPVCAPIICPPPSIPTFATLRVYKPSAGNNSLYRDTAVFECLPQHAMFGNDTITCTTHGNWTKLPECREVKCPFPSRPDNGFVNYPAKPTLYYKDKATFGCHDGYSLDGPEEIECTKLGNWSAMPSCKASCKVPVKKATVVYQGERVKIQEKFKNGMLHGDKVSFFCKNKEKKCSYTEDAQCIDGTIEVPKCFKEHSSLAFWKTDASDVKPC
  ThT fluorescence signal: higher ThT fluorescence signal than native β2GPI purified from plasma
